The Human Domainome abundance scans (Beltran et al. 2025)
± gives the uncertainty stated by the source.

B1: CD2-associated protein, residues 271 to 331; numbered along this chain, Q9Y5K6 (parent)
chain: KEYCRTLFAYEGTNEDELTFKEGEIIHLISKETGEAGWWRGELNGKEGVFPDNFAVQINEL

Variants of: B1
Assay: abundance fitness (aPCA) (normalised: wild type 0, dead -1); higher = more abundant; growth selection in yeast, the domain comes from the species named
Conditions: Homo sapiens
Variant L61E has an abundance fitness of 0.026 ± 0.23. L61W showed an abundance fitness of -0.116 ± 0.089. In the case of E60G, the abundance fitness is reported as 0.013 ± 0.14. With E60K the abundance fitness was 0.03 ± 0.085. In the case of T13L, the abundance fitness is reported as -0.082 ± 0.05. For T13N, the abundance fitness was -0.078 ± 0.093. With T13Y the abundance fitness was -0.257 ± 0.1. With T13E the abundance fitness was -0.042 ± 0.062. With T13Q the abundance fitness was 0.122 ± 0.083. Y10N gave an abundance fitness of -0.831 ± 0.42. Y10W showed an abundance fitness of -0.209 ± 0.066. For Y10V, the abundance fitness was -0.567 ± 0.16. In the case of Y10E, the abundance fitness is reported as -0.592 ± 0.14. With Y10I the abundance fitness was -0.846 ± 0.48. Variant Y10K has an abundance fitness of -0.167 ± 0.21. In the case of E24D, the abundance fitness is reported as -0.036 ± 0.079. E24Y showed an abundance fitness of -0.77 ± 0.14. Variant E24T has an abundance fitness of -0.286 ± 0.069. E24F showed an abundance fitness of -0.993 ± 0.21. E24M gave an abundance fitness of -0.223 ± 0.052. With E24S the abundance fitness was -0.461 ± 0.055. In the case of G41A, the abundance fitness is reported as -0.703 ± 0.12. Work on G41P yielded an abundance fitness of -0.605 ± 0.19. For G41Q, the abundance fitness was -0.657 ± 0.12. Work on G41C yielded an abundance fitness of -1.07 ± 0.35. G41V gave an abundance fitness of -1.06 ± 0.17. In the case of G34R, the abundance fitness is reported as -0.26 ± 0.078. In the case of G34F, the abundance fitness is reported as -0.491 ± 0.13. Variant G34D has an abundance fitness of -0.031 ± 0.17. G34K gave an abundance fitness of 0.048 ± 0.098. Work on D16A yielded an abundance fitness of -0.061 ± 0.055. In the case of D16H, the abundance fitness is reported as -0.008 ± 0.098. Variant D16R has an abundance fitness of -0.062 ± 0.044. Variant K1N has an abundance fitness of -0.384 ± 0.098. With K1R the abundance fitness was -0.277 ± 0.074. In the case of K1S, the abundance fitness is reported as -0.229 ± 0.091. With K1A the abundance fitness was -0.529 ± 0.097. With K1M the abundance fitness was -0.154 ± 0.081. With K1Q the abundance fitness was -0.343 ± 0.1. K1Y gave an abundance fitness of -0.656 ± 0.13. Work on K1T yielded an abundance fitness of -0.394 ± 0.079. In the case of K1G, the abundance fitness is reported as -0.223 ± 0.056. With K1F the abundance fitness was -0.337 ± 0.21. For I58N, the abundance fitness was -0.378 ± 0.13. Work on I58W yielded an abundance fitness of -0.213 ± 0.065. Variant I58D has an abundance fitness of 0 ± 0.14. I58F gave an abundance fitness of -0.126 ± 0.11. I58Q gave an abundance fitness of -0.247 ± 0.088. For K21Q, the abundance fitness was -0.139 ± 0.075. With K21R the abundance fitness was -0.064 ± 0.064. Variant K21F has an abundance fitness of -0.42 ± 0.099. In the case of Q57W, the abundance fitness is reported as -0.532 ± 0.095. Variant Q57I has an abundance fitness of -0.006 ± 0.093. Work on Q57H yielded an abundance fitness of -0.051 ± 0.15. Q57C gave an abundance fitness of -0.139 ± 0.1. In the case of E35C, the abundance fitness is reported as -0.027 ± 0.12. E35M showed an abundance fitness of -0.028 ± 0.097. For E35R, the abundance fitness was 0.034 ± 0.063. Work on E35T yielded an abundance fitness of 0.132 ± 0.079. In the case of E35L, the abundance fitness is reported as -0.035 ± 0.052. With E35H the abundance fitness was -0.078 ± 0.094. Work on E35V yielded an abundance fitness of 0.032 ± 0.099. In the case of N59W, the abundance fitness is reported as -0.367 ± 0.13. N59Q showed an abundance fitness of -0.056 ± 0.17. N59S showed an abundance fitness of 0.009 ± 0.08. Work on N59I yielded an abundance fitness of -0.702 ± 0.45. N44W showed an abundance fitness of -0.568 ± 0.25. Variant N44D has an abundance fitness of -0.113 ± 0.065. Work on N44E yielded an abundance fitness of -0.043 ± 0.11. Variant N44F has an abundance fitness of -0.449 ± 0.062. N44Q showed an abundance fitness of -0.507 ± 0.35. In the case of N53H, the abundance fitness is reported as -0.032 ± 0.065. N53Y gave an abundance fitness of -0.084 ± 0.054. In the case of N53F, the abundance fitness is reported as -0.14 ± 0.059. Variant N53R has an abundance fitness of 0.038 ± 0.055. Variant V56W has an abundance fitness of -0.434 ± 0.14. With V56G the abundance fitness was -0.173 ± 0.18. With V56Q the abundance fitness was -0.226 ± 0.18. Variant V56L has an abundance fitness of -0.264 ± 0.088. V56P showed an abundance fitness of -0.567 ± 0.25. For V56K, the abundance fitness was -0.05 ± 0.085. V56R gave an abundance fitness of -0.161 ± 0.054. W39V showed an abundance fitness of -0.519 ± 0.087. W39R showed an abundance fitness of -0.547 ± 0.06. Work on W39K yielded an abundance fitness of -0.536 ± 0.13. Variant W39I has an abundance fitness of -0.851 ± 0.17. With W39Q the abundance fitness was -0.661 ± 0.2. In the case of W39F, the abundance fitness is reported as -0.513 ± 0.09. With L43K the abundance fitness was -0.156 ± 0.073. In the case of L43E, the abundance fitness is reported as -0.703 ± 0.14. L43N gave an abundance fitness of -0.468 ± 0.17. In the case of L43I, the abundance fitness is reported as -0.004 ± 0.14. Work on L43F yielded an abundance fitness of -0.475 ± 0.091. For L43A, the abundance fitness was -0.285 ± 0.062. In the case of K31D, the abundance fitness is reported as -0.717 ± 0.14. K31C showed an abundance fitness of -0.562 ± 0.095. In the case of K31Q, the abundance fitness is reported as -0.52 ± 0.14. K31F showed an abundance fitness of -0.848 ± 0.086. For K31M, the abundance fitness was -0.013 ± 0.25. Work on K31N yielded an abundance fitness of -0.575 ± 0.069. With K31P the abundance fitness was -0.703 ± 0.17. Variant S30P has an abundance fitness of -0.71 ± 0.1. Work on S30D yielded an abundance fitness of -0.2 ± 0.12. In the case of S30T, the abundance fitness is reported as 0.023 ± 0.062. S30A showed an abundance fitness of -0.129 ± 0.053. S30W showed an abundance fitness of -0.957 ± 0.22. Variant S30F has an abundance fitness of -0.967 ± 0.28. S30G showed an abundance fitness of -0.328 ± 0.057. Work on L18D yielded an abundance fitness of -0.739 ± 0.17. In the case of L18W, the abundance fitness is reported as -0.792 ± 0.14. L18Q showed an abundance fitness of -0.831 ± 0.13. Variant L18F has an abundance fitness of -0.685 ± 0.18. In the case of L18N, the abundance fitness is reported as -0.761 ± 0.32. L28Q gave an abundance fitness of -0.913 ± 0.17. With L28V the abundance fitness was -0.005 ± 0.077. In the case of L28Y, the abundance fitness is reported as -0.702 ± 0.16. In the case of L28W, the abundance fitness is reported as -0.871 ± 0.11. Work on L28C yielded an abundance fitness of -0.676 ± 0.078. For I29W, the abundance fitness was -1.05 ± 0.18. With I29Y the abundance fitness was -0.755 ± 0.14. Variant I29L has an abundance fitness of -0.006 ± 0.053. For I29C, the abundance fitness was -0.561 ± 0.22. Variant I29S has an abundance fitness of -0.463 ± 0.061. For I29A, the abundance fitness was -0.672 ± 0.09. I29G gave an abundance fitness of -0.713 ± 0.092. Work on F8A yielded an abundance fitness of 0.014 ± 0.056. Variant F8Q has an abundance fitness of 0.074 ± 0.065. With F8K the abundance fitness was 0.128 ± 0.06. G23M showed an abundance fitness of -0.958 ± 0.23. G23R showed an abundance fitness of -0.57 ± 0.063. With G23S the abundance fitness was -0.465 ± 0.082. Work on G23N yielded an abundance fitness of -0.106 ± 0.12. With G23T the abundance fitness was -0.424 ± 0.14. In the case of G23Y, the abundance fitness is reported as -1.09 ± 0.33. G23V gave an abundance fitness of -1.13 ± 0.2. For G23F, the abundance fitness was -0.863 ± 0.39. Work on L7F yielded an abundance fitness of -0.741 ± 0.15. Variant L7M has an abundance fitness of -0.113 ± 0.077. Work on L7V yielded an abundance fitness of -0.088 ± 0.07. L7A showed an abundance fitness of -0.275 ± 0.059. V49T showed an abundance fitness of -0.129 ± 0.083. Variant V49M has an abundance fitness of -0.082 ± 0.067. For V49S, the abundance fitness was -0.297 ± 0.06. V49Q showed an abundance fitness of -0.302 ± 0.077. V49Y gave an abundance fitness of -0.022 ± 0.1. Work on I26R yielded an abundance fitness of -0.829 ± 0.09. I26W gave an abundance fitness of -0.599 ± 0.12. For I26E, the abundance fitness was -0.725 ± 0.12. Variant I25R has an abundance fitness of -0.372 ± 0.053. I25M showed an abundance fitness of -0.064 ± 0.063. With I25E the abundance fitness was -0.471 ± 0.084. With I25F the abundance fitness was -0.302 ± 0.076. I25Q gave an abundance fitness of -0.234 ± 0.087. I25K showed an abundance fitness of -0.35 ± 0.1. Work on I25V yielded an abundance fitness of -0.083 ± 0.053. With A36R the abundance fitness was -0.054 ± 0.046. A36L gave an abundance fitness of -0.305 ± 0.072. Work on A36C yielded an abundance fitness of -0.147 ± 0.11. With A36D the abundance fitness was -0.082 ± 0.11. A36Y showed an abundance fitness of -0.334 ± 0.15. With A36P the abundance fitness was 0.114 ± 0.09. With A36K the abundance fitness was -0.008 ± 0.094.
